The test system of this experiment is HTLV-1 LTR promoter transactivation by HTLV-1 Tax. Description: Transactivation assay, HTLV-1 LTR luciferase reporter with HTLV-1 Tax. It counts as cell-based. The settings on record: HEK293 cells co-transfected with pHTLV1LTR-Luc, HTLV-1 Tax and the human ORF; relative luciferase activity 24 h post-transfection; positive if >=2 or <=0.5 and p<0.05. The text has this: Twenty-four hours post-transfection, cells were washed three times with PBS, lysed and luciferase activities determined from two independent transfection experiments in triplicate. We computed a paired t-test to assess the difference of the means between samples with and without the human interactor. For a trial to be considered positive, the relative luciferase activities has to be >=2 or <=0.5, and the p-value of the t-test<0.05.
Expression vectors encoding human ORFs and HIV-1 Tat or HTLV-1 Tax proteins were tested in a transactivation reporter assay against reporter plasmids harboring HIV-1 or HTLV-1 viral promoter sequences cloned upstream of the luciferase reporter gene. […] Wherever not expressly specified, constructs used herein were generally made by sub-cloning entry clones from the ORFeome V3.1 into suitable destination vectors.
(Reporter assays use an easily measured gene product as a stand-in for the process of interest.)

This passage reports HTLV_LTR transactiv. results from US20120090043A1, “TARGETS FOR RETROVIRUS ASSOCIATED DISEASES” (priority 2009, published 2012).

B1: FLJ22471: human host interactor protein, Gene ID 80212, expressed from transfected ORF vector (protein)
chain: MTSPHFSSYDEGPLDVSMAATNLENQLHSAQKNLLFLQREHASTLKGLHSEIRRLQQHCTDLTYELTVKSSEQTGDGTSKSSELKKRCEELEAQLKVKENENAELLKELEQKNAMITVLENTIKEREKKYLEELKAKSHKLTLLSSELEQRASTIAYLTSQLHAAKKKLMSSSGTSDASPSGSPVLASYKPAPPKDKLPETPRRRMKKSLSAPLHPEFEEVYRFGAESRKLLLREPVDAMPDPTPFLLARESAEVHLIKERPLVIPPIASDRSGEQHSPAREKPHKAHVGVAHRIHHATPPQAQPEVKTLAVDQVNGGKVVRKHSGTDRTV
As for B1, the HTLV_LTR transactiv. stood at 2.25 fold change.

B2: DIPA: human host interactor protein, Gene ID 11007, expressed from transfected ORF vector (protein)
chain: MEAEAGGLEELTDEEMAALGKEELVRRLRREEAARLAALVQRGRLMQEVNRQLQGHLGEIRELKQLNRRLQAENRELRDLCCFLDSERQRGRRAARQWQLFGTQASRAVREDLGGCWQKLAELEGRQEELLRENLALKELCLALGEEWGPRGGPSGAGGSGAGPAPELALPPCGPRDLGDGSSSTGSVGSPDQLPLACSPDD
For B2, the HTLV_LTR transactiv. is on record as 0.28 fold change.

B3: KIAA1949: human host interactor protein, Gene ID 170954, expressed from transfected ORF vector (protein)
chain: MATIPDWKLQLLARRRQEEASVRGREKAERERLSQMPAWKRGLLERRRAKLGLSPGEPSPVLGTVEAGPPDPDESAVLLEAIGPVHQNRFIRQERQQQQQQQQRSEELLAERKPGPLEARERRPSPGEMRDQSPKGRESREERLSPRETRERRLGIGGAQELSLRPLEARDWRQSPGEVGDRSSRLSEAWKWRLSPGETPERSLRLAESREQSPRRKEVESRLSPGESAYQKLGLTEAHKWRPDSRESQEQSLVQLEATEWRLRSGEERQDYSEECGRKEEWPVPGVAPKETAELSETLTREAQGNSSAGVEAAEQRPVEDGERGMKPTEGWKWTLNSGKAREWTPRDIEAQTQKPEPPESAEKLLESPGVEAGEGEAEKEEAGAQGRPLRALQNCCSVPSPLPPEDAGTGGLRQQEEEAVELQPPPPAPLSPPPPAPTAPQPPGDPLMSRLFYGVKAGPGVGAPRRSGHTFTVNPRRSVPPATPATPTSPATVDAAVPGAGKKRYPTAEEILVLGGYLRLSRSCLAKGSPERHHKQLKISFSETALETTYQYPSESSVLEELGPEPEVPSAPNPPAAQPDDEEDEEELLLLQPELQGGLRTKALIVDESCRR
For the molecule B3, the HTLV_LTR transactiv. was 0.35 fold change.

B4: HSFY1: human host interactor protein, Gene ID 86614, expressed from transfected ORF vector (protein)
chain: MAHVSSETQDVSPKDELTASEASTRSPLCEHTFPGDSDLRSMIEEHAFQVLSQGSLLESPSYTVCVSEPDKDDDFLSLNFPRKLWKIVESDQFKSISWDENGTCIVINEELFKKEILETKAPYRIFQTDAIKSFVRQLNLYGFSKIQQNFQRSAFLATFLSEEKESSVLSKLKFYYNPNFKRGYPQLLVRVKRRIGVKNASPISTLFNEDFNKKHFRAGANMENHNSALAAEASEESLFSASKNLNMPLTRESSVRQIIANSSVPIRSGFPPPSPSTSVGPSEQIATDQHAILNQLTTIHMHSHSTYMQARGHIVNFITTTTSQYHIISPLQNGYFGLTVEPSAVPTRYPLVSVNEAPYRNMLPAGNPWLQMPTIADRSAAPHSRLALQPSPLDKYHPNYN
For B4, the HTLV_LTR transactiv. is given as 0.43 fold change.

B5: DGCR6L: human host interactor protein, Gene ID 85359, expressed from transfected ORF vector (protein)
chain: MERYAAALEEVADGARQQERHYQLLSALQSLVKELPSSFQQRLSYTTLSDLALALLDGTVFEIVQGLLEIQHLTEKSLYNQRLRLQNEHRVLRQALRQKHQEAQQACRPHNLPVVQAAQQRELEAVEHRIREEQRAMDQKIILELDRKVADQQSTLEKAGVAGFYVTTNPQELMLQMNLLELIRKLQQRGCRAGNAALGLGGPWQSPAAQCDQKGSPVPP
Regarding B5, the HTLV_LTR transactiv. was 0.24 fold change.

B6: C1orf94: human host interactor protein, Gene ID 84970, expressed from transfected ORF vector (protein)
chain: MRGGGGCVLALGGQRGFQKERRRMASGNGLPSSSALVAKGPCALGPFPRYIWIHQDTPQDSLDKTCHEIWKRVQGLPEASQPWTSMEQLSVPVVGTLRGNELSFQEEALELSSGKDEISLLVEQEFLSLTKEHSILVEESSGELEVPGSSPEGTRELAPCILAPPLVAGSNERPRASIIVGDKLLKQKVAMPVISSRQDCDSATSTVTDILCAAEVKSSKGTEDRGRILGDSNLQVSKLLSQFPLKSTETSKVPDNKNVLDKTRVTKDFLQDNLFSGPGPKEPTGLSPFLLLPPRPPPARPDKLPELPAQKRQLPVFAKICSKPKADPAVERHHLMEWSPGTKEPKKGQGSLFLSQWPQSQKDACGEEGCCDAVGTASLTLPPKKPTCPAEKNLLYEFLGATKNPSGQPRLRNKVEVDGPELKFNAPVTVADKNNPKYTGNVFTPHFPTAMTSATLNQPLWLNLNYPPPPVFTNHSTFLQYQGLYPQQAARMPYQQALHPQLGCYSQQVMPYNPQQMGQQIFRSSYTPLLSYIPFVQPNYPYPQRTPPKMSANPRDPPLMAGDGPQYLFPQGYGFGSTSGGPLMHSPYFSSSGNGINF
Turning to B6, the HTLV_LTR transactiv. amounted to 0.41 fold change.

B7: CCDC24: human host interactor protein, Gene ID 149473, expressed from transfected ORF vector (protein)
chain: MLRHSPSLWELVEEHVPLRERREVKRILGEAAVDLSLELRAEVAMLRALLQEARSSQAPSSRPISDPSSLLAPPPLLKDLLRQELRQLLQGLRHKAICEGRDQAQAWVQYSPRVLHFALEEPRCDLPEQEIFQMRGGGPSSGHRDLSIIKDQLNVSNIDQVARHLRGLLEEECHTLEREILILQRCLEEEYLRPCHPSEAALEPTLAELKEQKKAMEQELQASVGPSCVSPNHRQRPLGSSTQGLRPPLPLCGVAPLQCCLPAPPLEPYLRPRGQSATHRWGRQLQCSPREGPASTPMSSAAPQAPA
Turning to B7, the HTLV_LTR transactiv. is on record as 2.88 fold change.

B8: FLJ10726: human host interactor protein, Gene ID 55216, expressed from transfected ORF vector (protein)
chain: MSRIPLGKVLLRNVIRHTDAHNKIQEESDMWKIRELEKQMEDAYRGTKRKMLPSSSSRMRSDGFDEESQRYYWRPKNEISGTLEDDFLKAKSWNKKFYDYEANMPDRWGHSGYKELYPEEFETDSDQQDITNGKKTSPQVKSSTHESRKHKKSKKSHKKKQKKRSHKKQKKSKKEATDITADSSSEFSEETGASGTRKGKQPHKRKKKSRKKSLKKPALFLEAESNTSHSDDSASSSSEESEERDTKKTKRKKREKKAHTSVANNEIQERTNKRTNWKVATDERSAESSEDD
In the case of B8, the HTLV_LTR transactiv. turned out to be 0.19 fold change.

B9: DAZAP2: human host interactor protein, Gene ID 9802, expressed from transfected ORF vector (protein)
chain: MNSKGQYPTQPTYPVQPPGNPVYPQTLHLPQAPPYTDAPPAYSELYRPSFVHPGAATVPTMSAAFPGASLYLPMAQSVAVGPLGSTIPMAYYPVGPIYPPGSTVLVEGGYDAGARFGAGATAGNIPPPPPGCPPNAAQLAVMQGANVLVTQRKGNFFMGGSDGGYTIW
In turn, B9 had an HTLV_LTR transactiv. of 3.31 fold change.

B10: FATE1: human host interactor protein, Gene ID 89885, expressed from transfected ORF vector (protein)
chain: MAGGPPNTKAEMEMSLAEELNHGRQGENQEHLVIAEMMELGSRSRGASQKKQKLEQKAAGSASAKRVWNMTATRPKKMGSQLPKPRMLRESGHGDAHLQEYAGNFQGIRFHYDRNPGTDAVAQTSLEEFNVLEMEVMRRQLYAVNRRLRALEEQGATWRHRETLIIAVLVSASIANLWLWMNQ
The molecule B10 showed an HTLV_LTR transactiv. of 0.49 fold change.

B11: DHRS10: human host interactor protein, Gene ID 51171, expressed from transfected ORF vector (protein)
chain: MATGTRYAGKVVVVTGGGRGIGAGIVRAFVNSGARVVICDKDESGGRALEQELPGAVFILCDVTQEDDVKTLVSETIRRFGRLDCVVNNAGHHPPPQRPEETSAQGFRQLLELNLLGTYTLTKLALPYLRKSQGNVINISSLVGAIGQAQAVPYVATKGAVTAMTKALALDESPYGVRVNCISPGNIWTPLWEELAALMPDPRATIREGMLAQPLGRMGQPAEVGAAAVFLASEANFCTGIELLVTGGAELGYGCKASRSTPVDAPDIPS
Consider B11, for which the HTLV_LTR transactiv. amounted to 0.41 fold change.
